Publication PMC10786891, “Massively parallel profiling of RNA-targeting CRISPR-Cas13d”
Positions count from the first letter of the chain named. In names and notes the source's numbering stands.

T1: EsCas13d, nuclease-dead (Eubacterium siraeum, UniProt B0MS50, R295A;H300A;R849A;H854A)
T1 sequence: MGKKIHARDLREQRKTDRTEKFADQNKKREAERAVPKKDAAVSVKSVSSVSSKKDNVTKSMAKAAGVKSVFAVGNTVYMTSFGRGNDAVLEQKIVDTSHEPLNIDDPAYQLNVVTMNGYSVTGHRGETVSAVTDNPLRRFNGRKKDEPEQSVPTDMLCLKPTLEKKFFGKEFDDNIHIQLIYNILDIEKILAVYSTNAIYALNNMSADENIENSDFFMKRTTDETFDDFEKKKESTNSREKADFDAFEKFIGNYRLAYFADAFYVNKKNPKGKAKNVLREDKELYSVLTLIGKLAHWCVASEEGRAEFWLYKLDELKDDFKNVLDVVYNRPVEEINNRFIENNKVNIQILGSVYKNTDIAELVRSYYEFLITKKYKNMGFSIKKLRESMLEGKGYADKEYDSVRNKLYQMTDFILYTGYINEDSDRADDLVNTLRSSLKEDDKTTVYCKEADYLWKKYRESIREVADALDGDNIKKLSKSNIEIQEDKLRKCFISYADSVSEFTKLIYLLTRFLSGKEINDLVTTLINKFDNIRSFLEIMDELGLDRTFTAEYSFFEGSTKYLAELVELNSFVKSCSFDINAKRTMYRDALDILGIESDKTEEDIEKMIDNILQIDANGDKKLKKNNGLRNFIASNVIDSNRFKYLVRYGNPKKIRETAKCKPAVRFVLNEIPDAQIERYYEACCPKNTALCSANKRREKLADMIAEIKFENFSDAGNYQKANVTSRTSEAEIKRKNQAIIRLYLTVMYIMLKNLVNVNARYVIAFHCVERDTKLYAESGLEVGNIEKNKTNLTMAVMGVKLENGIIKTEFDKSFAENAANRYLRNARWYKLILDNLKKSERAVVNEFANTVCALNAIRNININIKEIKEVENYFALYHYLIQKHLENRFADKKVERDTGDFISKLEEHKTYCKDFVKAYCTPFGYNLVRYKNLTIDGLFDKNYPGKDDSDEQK

B1: target 1 C4U,G5U (mixed)
RNA 1: CACCCGUGCAAAAAUGCAGGGGUCUAAAACUGAGCGGAUAACCUCUCUAUGG
RNA 2: GGGAAUGGAUCCACAUCUACGAAUUCGUACCAUAGAGAGGUUAUCCUUUCACCGAGAUCGGAAGAGCACACGU
B2: target 1 C6G,A18C (mixed)
RNA 1: B1 RNA 1
RNA 2: B1 RNA 2 with A34C, C46G, U47G, U48C
B3: target 1 insC 3' of 20,insU 3' of 6 (mixed)
RNA 1: B1 RNA 1
RNA 2: GGGAAUGGAUCCACAUCUACGAAUUCGUACCACUAGAGAGGUUAUCCUGCUCACCGAGAUCGGAAGAGCACACGU
B4: target 1 A14C,G15A (mixed)
RNA 1: B1 RNA 1
RNA 2: B1 RNA 2 with G37A, A38C, U47G, U48C
B5: target 1 insC 3' of 9,insU 3' of 5 (mixed)
RNA 1: B1 RNA 1
RNA 2: GGGAAUGGAUCCACAUCUACGAAUUCGUACCAUAGAGAGGUUACUCCGUCUCACCGAGAUCGGAAGAGCACACGU
B6: target 1 U3A,U10A (mixed)
RNA 1: B1 RNA 1
RNA 2: B1 RNA 2 with U42A, U47G, U48C, U49A
B7: target 1 insC 3' of 10,insG 3' of 2 (mixed)
RNA 1: B1 RNA 1
RNA 2: B5 RNA 2 with A43C, C44A, U49C, C50U, U51C, C52G
B8: target 1 insC 3' of 11,insC 3' of 11 (mixed)
RNA 1: B1 RNA 1
RNA 2: B5 RNA 2 with U42C, A43C, C44U, U45A, C46U, G48C, U49G
B9: target 1 insC 3' of 11,insG 3' of 1 (mixed)
RNA 1: B1 RNA 1
RNA 2: B5 RNA 2 with U42C, A43U, C44A, U49C, C50U, U51C, C52A, A53G
B10: target 1 insC 3' of 10,insC 3' of 9 (mixed)
RNA 1: B1 RNA 1
RNA 2: B5 RNA 2 with A43C, C44A, U45C, C46U, G48C, U49G
B11: target 1 insC 3' of 11,insC 3' of 1 (mixed)
RNA 1: B1 RNA 1
RNA 2: B5 RNA 2 with U42C, A43U, C44A, U49C, C50U, U51C, C52A, A53C
B12: target 1 insU 3' of 18,insU 3' of 17 (mixed)
RNA 1: B1 RNA 1
RNA 2: GGGAAUGGAUCCACAUCUACGAAUUCGUACCAUAUGUAGAGGUUAUCCGCUCACCGAGAUCGGAAGAGCACACGU
B13: target 1 C4G,A16C (mixed)
RNA 1: B1 RNA 1
RNA 2: B1 RNA 2 with A36C, U47G, U48G
B14: target 1 A1G,C4A (mixed)
RNA 1: B1 RNA 1
RNA 2: B1 RNA 2 with U47G, U48A, A51G
B15: target 1 insC 3' of 12,insU 3' of 2 (mixed)
RNA 1: B1 RNA 1
RNA 2: B5 RNA 2 with U41C, A43U, C44A, U49C, C50U, U51C, C52U
B16: target 1 insU 3' of 6,insU 3' of 4 (mixed)
RNA 1: B1 RNA 1
RNA 2: B5 RNA 2 with C44U, U45C, C47U, U49C, C50U
B17: target 1 A1U,A18C (mixed)
RNA 1: B1 RNA 1
RNA 2: B1 RNA 2 with A34C, U47G, U48C, A51U
B18: target 1 insU 3' of 13,insG 3' of 4 (mixed)
RNA 1: B1 RNA 1
RNA 2: B5 RNA 2 with G40U, U41G, A43U, C44A, U49C, C50G
B19: target 1 insU 3' of 17,insU 3' of 1 (mixed)
RNA 1: B1 RNA 1
RNA 2: GGGAAUGGAUCCACAUCUACGAAUUCGUACCAUAGUAGAGGUUAUCCGCUCAUCCGAGAUCGGAAGAGCACACGU
B20: target 1 C2A,G17A (mixed)
RNA 1: B1 RNA 1
RNA 2: B1 RNA 2 with G35A, U47G, U48C, C50A
B21: target 1 C4G,G12U (mixed)
RNA 1: B1 RNA 1
RNA 2: B1 RNA 2 with G40U, U47G, U48G
B22: target 1 insU 3' of 18,insU 3' of 6 (mixed)
RNA 1: B1 RNA 1
RNA 2: B3 RNA 2 with C33U, U34A, A35U
B23: target 1 G5A,G13C (mixed)
RNA 1: B1 RNA 1
RNA 2: B1 RNA 2 with G39C, U47A, U48C
B24: target 1 insG 3' of 11,insC 3' of 9 (mixed)
RNA 1: B1 RNA 1
RNA 2: B5 RNA 2 with U42G, A43U, C44A, U45C, C46U, G48C, U49G
B25: target 1 C7G,U10G (mixed)
RNA 1: B1 RNA 1
RNA 2: B1 RNA 2 with U42G, C45G, U47G, U48C
B26: target 1 insU 3' of 9,insC 3' of 5 (mixed)
RNA 1: B1 RNA 1
RNA 2: B5 RNA 2 with C44U, U49C
B27: target 1 C6A,A9G (mixed)
RNA 1: B1 RNA 1
RNA 2: B1 RNA 2 with A43G, C46A, U47G, U48C
B28: target 1 C2G,A9G (mixed)
RNA 1: B1 RNA 1
RNA 2: B1 RNA 2 with A43G, U47G, U48C, C50G
B29: target 1 insC 3' of 11,insU 3' of 1 (mixed)
RNA 1: B1 RNA 1
RNA 2: B19 RNA 2 with U36A, A37G, G38A, A39G, G41U, U42C

Each binder was assayed against T1, EsCas13d, nuclease-dead (assay: crRNA (strand 1, pre-loaded); Mg2+; 40 mM Tris-HCl pH 7.5, 150 mM NaCl, 6 mM MgCl2, 1 mM DTT, 0.1% Tween-20, 0.2 mg/ml BSA; 25 C; 10 min per concentration, then washed). Details: tags: His6-TwinStrep-SUMO cleaved; N-terminal SNAP kept (SNAP-Surface 488); label: 3' end held by stalled T7 RNA polymerase.
B1 showed a Kd of 49 ± 4 nM. B2 gave a Kd of 62 ± 8 nM. In the case of B3, the Kd is reported as 11.3 ± 0.9 nM. B4 gave a Kd of 32 ± 2.8 nM. Binder B5 has a Kd of 7.39 ± 0.32 nM. In the case of B6, the Kd is reported as 21.2 ± 2.5 nM. In the case of B7, the Kd is reported as 24.8 ± 2.1 nM. Work on B8 yielded a Kd of 35 ± 7 nM. With B9 the Kd was 35 ± 9 nM. With B10 the Kd was 14.9 ± 0.6 nM. B11 showed a Kd of 26.2 ± 1.7 nM. B12 gave a Kd of 47 ± 8 nM. For B13, the Kd was 39 ± 5 nM. For B14, the Kd was 4.5 ± 0.4 nM. Work on B15 yielded a Kd of 12.2 ± 0.8 nM. For B16, the Kd was 10.3 ± 0.8 nM. In the case of B17, the Kd is reported as 66 ± 12 nM. Binder B18 has a Kd of 14.2 ± 2 nM. B19 showed a Kd of 22.4 ± 2.3 nM. In the case of B20, the Kd is reported as 47 ± 6 nM. Binder B21 has a Kd of 9.5 ± 1.6 nM. In the case of B22, the Kd is reported as 40.4 ± 2.6 nM. B23 showed a Kd of 50 ± 7 nM. With B24 the Kd was 31.4 ± 2.2 nM. With B25 the Kd was 20 ± 0.8 nM. For B26, the Kd was 12.9 ± 1.3 nM. Binder B27 has a Kd of 11.5 ± 0.6 nM. B28 was tested, and the Kd was 9.1 ± 0.4 nM. In the case of B29, the Kd is reported as 35 ± 8 nM.
